From patent publication US20130130922
Where two headings read alike, the source gives them in different places.

Columns and labels:
[1] = target: M.SssI Q142A/N370A Q142A,N370A (Spiroplasma sp.?) (UniProt P15840); details: Ado-11-amine 160-320 uM, no Mg, MTase:DNA 3.6:1, Hin6I protection
[2] = target: M.SssI Q142A/N370A Q142A,N370A (Spiroplasma sp.?) (UniProt P15840); details: Ado-6-amine 40 uM, Hin6I protection
[3] = target: M.SssI (original) (Spiroplasma sp.?) (UniProt P15840); details: transalkylation ~2 orders of magnitude lower than double mutant; AdoMet analogs; DNA for this comparison not explicitly stated
M.SssI (original) (Spiroplasma sp.?), sequence (P15840 whole entry): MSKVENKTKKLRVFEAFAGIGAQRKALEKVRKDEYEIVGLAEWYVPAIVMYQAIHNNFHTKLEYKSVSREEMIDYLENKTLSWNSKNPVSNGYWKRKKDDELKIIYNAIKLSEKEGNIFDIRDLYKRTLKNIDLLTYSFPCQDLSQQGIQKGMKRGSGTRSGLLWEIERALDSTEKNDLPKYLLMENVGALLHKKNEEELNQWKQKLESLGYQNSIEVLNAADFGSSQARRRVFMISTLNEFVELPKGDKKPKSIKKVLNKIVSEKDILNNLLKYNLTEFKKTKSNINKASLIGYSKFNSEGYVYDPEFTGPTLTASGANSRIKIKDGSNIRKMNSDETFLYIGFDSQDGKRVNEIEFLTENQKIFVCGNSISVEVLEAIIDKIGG

[4] = target: M.SssI Q142A/N370A Q142A,N370A (Spiroplasma sp.?) (UniProt P15840)
M.HpaII (original) = target: T1, M.HpaII (original) (UniProt P15446); details: ~2 orders of magnitude lower transalkylation than double mutant
T1 sequence: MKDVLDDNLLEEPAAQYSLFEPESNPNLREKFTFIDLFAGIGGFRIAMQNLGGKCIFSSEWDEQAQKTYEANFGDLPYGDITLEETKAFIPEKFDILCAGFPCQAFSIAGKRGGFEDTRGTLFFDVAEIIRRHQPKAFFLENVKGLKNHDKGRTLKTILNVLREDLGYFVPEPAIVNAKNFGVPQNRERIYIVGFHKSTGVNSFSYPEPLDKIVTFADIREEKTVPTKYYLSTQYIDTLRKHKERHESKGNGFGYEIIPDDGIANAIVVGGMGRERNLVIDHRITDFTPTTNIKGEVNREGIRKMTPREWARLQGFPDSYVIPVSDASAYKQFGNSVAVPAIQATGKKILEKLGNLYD

M.SssI Q142A/N370A Q142A,N370A (Spiroplasma sp.?), sequence (P15840 whole entry Q142A/N370A): as the sequence (P15840 whole entry) above, with Q142A, N370A counted along it

1343 bp DNA fragment with 18 SssI sites
activity [1]: 50 % protected | activity ([2]; 10 mM MgCl2, MTase:DNA 2:1, 37 C 2 h): 30 % protected | activity ([2]; no MgCl2, MTase:DNA 2:1, 37 C 2 h): 70 % protected | binding signal (fold of Q142A/N370A) [3]: 0.01

Control-Sss nonspecific fragment (no target sites)
activity ([4]; nonspecific probe, same conditions): < 1 % recovered

Control-Sss specific fragment (two SssI sites)
activity ([4]; Ado-6-amine 50 uM, 1450 nM enzyme, 37 C 30 min, with human genomic DNA): 80 % recovered

DNA with CCGG sites (unspecified)
binding signal (fold of Q104A/N335A) (M.HpaII (original)): 0.01
